pKd: −log10 of the molar value. Where two headings read alike, the source gives them in different places.
Columns and labels:
[1] = biological target: WT CA nanotubes (pre-formed tubular assemblies of wild-type HIV-1 CA, hexameric lattices) (HIV-1); assay: co-sedimentation; recombinant GST proteins added to pre-formed WT CA nanotubes, 30 min at 4 °C, 21,000 g for 5 min, pellets washed three times; SDS-PAGE or immunoblot; conditions: scale: GST-CPSF6(LCR-FG-LCR) molecules per CA hexamer
[2] = biological target: Cross-linked His-CAhex: disulfide-stabilized hexamer of 6-His-CA(A14C/E45C/W184A/M185A) (HIV-1); assay: SPR; Reichert 4-SPR; cross-linked His-CAhex immobilised on an NTA chip via the C-terminal His-tag; peptides 3.9 μM to 2 mM; 0.01 M HEPES pH 7.4, 0.15 M NaCl, 0.05% v/v Surfactant P20; simple kinetic model
[3] = biological target: isolated native HIV-1 cores (HIV-1); assay: pull-down
[4] = biological target: isolated native HIV-1 cores (HIV-1); assay: pull-down; remark: listed apart in the source

“GST-CPSF6_(261-358)(LCR-FG-LCR) (from UniProt Q16630-2 261-358) (domain or fragment)” showed a stoichiometry N [1] of 2.4.

“NUP153_(1409-1423) 15-mer FG peptide (from UniProt P49790 1409-1423)” was tested, and the pKd [2] was 3.88.

“GST-CPSF6261-358(LCR-FG-LCR) (domain or fragment)” was tested, and the pKd [3] was 6.05 and the pKd [4] was 6.09.
